The text below walks through data of paper PMC3779351 (Journal of Molecular Biology, 2013).

Among the targets are GST-Cul5^NTD Phe41Ala (mouse, UniProt Q9D5V5 1-384, Phe41Ala | Val341Arg | Leu345Asp); GST-Cul5^NTD Leu52Ala (mouse, UniProt Q9D5V5 1-384, Leu52Ala | Val341Arg | Leu345Asp); GST-Cul5^NTD His48Ala (mouse, UniProt Q9D5V5 1-384, His48Ala | Val341Arg | Leu345Asp); GST-Cul5^NTD (wild type) (mouse, UniProt Q9D5V5 1-384, Val341Arg | Leu345Asp); GST-Cul5^NTD Gln113Ala (mouse, UniProt Q9D5V5 1-384, Gln113Ala | Val341Arg | Leu345Asp).

Holding throughout (experiment): SPR
On the technique in general: SPR reads the build-up and loss of mass on a sensor chip optically.

Chain of GST-Cul5^NTD (wild type) (Q9D5V5 1-384 V341R/L345D): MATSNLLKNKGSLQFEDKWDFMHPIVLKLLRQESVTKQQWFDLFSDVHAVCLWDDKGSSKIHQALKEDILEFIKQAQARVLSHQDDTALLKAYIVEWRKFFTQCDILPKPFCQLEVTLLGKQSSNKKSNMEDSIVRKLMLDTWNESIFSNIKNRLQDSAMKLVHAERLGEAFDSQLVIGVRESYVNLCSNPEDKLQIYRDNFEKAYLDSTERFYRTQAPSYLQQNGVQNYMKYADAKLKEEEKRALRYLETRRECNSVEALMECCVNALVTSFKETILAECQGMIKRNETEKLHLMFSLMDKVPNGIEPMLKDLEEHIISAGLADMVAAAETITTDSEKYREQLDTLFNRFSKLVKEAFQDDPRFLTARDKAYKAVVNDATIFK
Chain of GST-Cul5^NTD His48Ala (Q9D5V5 1-384 H48A/V341R/L345D): as the sequence (Q9D5V5 1-384 V341R/L345D) above, with H48A counted along it
Chain of GST-Cul5^NTD Gln113Ala (Q9D5V5 1-384 Q113A/V341R/L345D): as the sequence (Q9D5V5 1-384 V341R/L345D) above, with Q113A counted along it
Chain of GST-Cul5^NTD Leu52Ala (Q9D5V5 1-384 L52A/V341R/L345D): as the sequence (Q9D5V5 1-384 V341R/L345D) above, with L52A counted along it
Chain of GST-Cul5^NTD Phe41Ala (Q9D5V5 1-384 F41A/V341R/L345D): as the sequence (Q9D5V5 1-384 V341R/L345D) above, with F41A counted along it

B1: ASB9–Elongin B/C ternary complex (wild type) (complex)
chain 1: SDWSPMHEAAIHGHQLSLRNLISQGWAVNIITADHVSPLHEACLGGHLSCVKILLKHGAQVNGVTADWHTPLFNACVSGSWDCVNLLLQHGASVQPESDLASPIHEAARRGHVECVNSLIAYGGNIDHKISHLGTPLYLACENQQRACVKKLLESGADVNQGKGQDSPLHAVARTASEELACLLMDFGADTQAKNAEGKRPVELVPPESPLAQLFLEREGPPSLMQLCRLRIRKCFGIQQHHKITKLVLPEDLKQFLLHL
chain 2: […]
chain 3: […]
With B1, the “fold loss in affinity against wild-type Cul5” value with GST-Cul5^NTD Phe41Ala and in the test with GST-Cul5^NTD His48Ala was 50 fold each time. Besides, the binding result with GST-Cul5^NTD Leu52Ala, with GST-Cul5^NTD (wild type) and in the test with GST-Cul5^NTD Gln113Ala was “binds” throughout.
